Data taken from article PMC6591005 (Immunity, 2019).

Key:
Conditions in all cases: both partners purified
[1] = molecular target: T1, GII.4 1997 Virus like particles (Human norovirus GII.4 1997 (US95_96), …, UniProt R4I4R2, strain); assay: ELISA; EIA: plates coated with VLP at 0.25 μg/ml in PBS for 4 h, blocked in 5% dry milk in PBS-0.05% Tween-20; two-fold serial dilutions of mAb at 37°C; anti-human IgG-HRP; less than 0.2 OD at 2 μg/ml scored as negative
T1 construct: copies: 180

[2] = molecular target: GII.17 Virus like particles (Human norovirus GII.17, GenBank …, UniProt A0A0E3X5I8, strain); assay: as above
[3] = molecular target: T2, GII.4 2006b Virus like particles (Human norovirus GII.4 2006b …, UniProt R4I3T2, strain); assay: as above
T2 construct: copies: 180

[4] = molecular target: GII.2 Virus like particles (Human norovirus GII.2 (Snow Mountain …, UniProt Q80RD6, strain)); assay: as above
[5] = molecular target: T3, GII.4 2002 Virus like particles (Human norovirus GII.4 2002 Farmington …, UniProt R4I4P2, strain); assay: as above
T3 construct: copies: 180

[6] = molecular target: T4, GII.4 2012 Virus like particles (Human norovirus GII.4 Sydney 2012, …, UniProt K4LM89, strain); assay: as above
T4 construct: copies: 180

[7] = molecular target: T5, GII.4 2015 Virus like particles (Human norovirus GII.P16-GII.4 Sydney …, strain); assay: as above
T5 construct: copies: 180
T5 chain: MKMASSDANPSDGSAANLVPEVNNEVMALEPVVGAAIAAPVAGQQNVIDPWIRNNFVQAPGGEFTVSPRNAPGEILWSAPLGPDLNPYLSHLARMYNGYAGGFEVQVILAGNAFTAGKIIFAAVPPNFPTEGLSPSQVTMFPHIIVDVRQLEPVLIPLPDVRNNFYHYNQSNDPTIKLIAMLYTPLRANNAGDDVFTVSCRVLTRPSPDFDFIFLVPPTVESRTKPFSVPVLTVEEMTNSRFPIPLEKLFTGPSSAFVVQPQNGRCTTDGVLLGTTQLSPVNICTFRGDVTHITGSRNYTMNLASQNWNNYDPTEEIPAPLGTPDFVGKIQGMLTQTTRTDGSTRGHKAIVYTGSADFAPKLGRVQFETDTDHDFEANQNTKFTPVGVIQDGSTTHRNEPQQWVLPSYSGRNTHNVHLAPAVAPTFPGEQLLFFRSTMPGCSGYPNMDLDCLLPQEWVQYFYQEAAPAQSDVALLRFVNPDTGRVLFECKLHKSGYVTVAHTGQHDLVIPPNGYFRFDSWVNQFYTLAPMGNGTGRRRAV

[8] = molecular target: soluble GII.4 P domain from the 2012 pandemic strain (Human norovirus GII.4 Sydney 2012, …, UniProt K4LM89, strain); assay: co-purification of the complex; Fab of A1227 purified in complex with soluble GII.4 P domains, screened for crystallization
[9] = molecular target: soluble GII.4 P domain from the 2006 pandemic strain (Human norovirus GII.4 2006, taken as …, UniProt R4I3T2, strain); assay: as above
[10] = molecular target: soluble GII.4 P domain from the 2009 pandemic strain (Human norovirus GII.4 2009 New Orleans, …, UniProt D3YBZ4, strain); assay: as above
[11] = molecular target: GII.4.2002 P domain (Human norovirus GII.4 2002 Farmington …, UniProt R4I4P2, strain); assay: crystal structure

Measured: binding result

B1: A1227 (recombinant IgG1) (antibody, V domains shown)
VH: QVQLVQSGGGMVQPGGSLSLSCAASGFTLSNYAMTWVRQAPGKGLEWVSSIGGSGGTTYYADSVKGRFTISRDSSMNTLYLQMSNLRAGDTAVYYCAKDKTRTLRLGYSGMDVWGQGTTVTVSS
VL: DIRLTQSPSSLSASVGDRVTITCRASQSISSYLNWYQQKPGKAPDLLIYGASSLQSGVPSRFSGSGSGTDFTLTISSLQPEDFGNYYCQQSFSTPRTFGQGTKVELK
binds: [1] | [2] | [3] | [4] | [5] | [6] | [7]

B2: A1227 Fab (Fab, V domains shown)
VH: QVQLVQSGGGMVQPGGSLSLSCAASGFTLSNYAMTWVRQAPGKGLEWVSSIGGSGGTTYYADSVKGRFTISRDSSMNTLYLQMSNLRAGDTAVYYCAKDKTRTLRLGYSGMDVWGQGTTVTVSS
VL: DIRLTQSPSSLSASVGDRVTITCRASQSISSYLNWYQQKPGKAPDLLIYGASSLQSGVPSRFSGSGSGTDFTLTISSLQPEDFGNYYCQQSFSTPRTFGQGTKVELK
notes: also called Fab A1227
binds: [8] | [9] | [10]

B3: A1431 Fab (Fab, V domains shown)
VH: QVQLVQSGGGLVQPGGSLRLSCAASGFAFSNHGMHWVRQAPGKGLEWLSYISGSTGAIHYANSVKGRFTISRDNARNSLDLQMNSLGDEDTAVYYCARDGPRPDGTGYAGPSNDYWGQGTLVSVSS
VL: EIVLTQSPASLSLSPGERATLSCKASRSISIYLAWYQQKPGQAPRLLIYDASYRAIGIPARFSGSGSGTDFTLTISNLEPEDFAVYYCQHRSSWPALTFGGGTKVEIK
binds: [11]
